Measurements taken from the supplement of paper PMC9170038.

Test system: MS2 coat protein
Experiment: apparent KD of MS2 coat protein; designed switch direction (-1 OFF switch, 1 ON switch): -1; higher = weaker reporter binding
Summary of the method: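 The apparent KD reported per design is the median over clusters of curve fits to normalised cluster fluorescence. The RNA switches were transcribed on Illumina chips by stalled E. coli RNA polymerase. SNAP-549-labelled MS2 coat protein was titrated from 0.7 or 1.5 nM, doubling up to 3 µM, in Tris-HCl pH 7.5 buffer containing KCl, MgCl2, BSA, DTT, tRNA and Tween-20, with no input, 200 uM small-molecule ligand, or an oligonucleotide input.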

[1] = Eterna round: R95, input ligand: microRNA oligo, concentration not stated
[2] = input ligand: microRNA oligo, concentration not stated
[3] = Eterna round: R95, input ligand: FMN 200 uM
[4] = Eterna round: R95, input ligand: none

Sequence	apparent KD of MS2 coat protein (input ligand: FMN 200 uM)	apparent KD of MS2 coat protein (input ligand: none)	also measured
AGUCGUAGACAGGAUAUGCGGCUAAUAAAUAAAGCAGAAGGGUCUACUUGAGGAUCACCCAAGUGGGCGGUUUA [jl-ex6-4.20 ViennaUCT mod] (Eterna round: R97, puzzle: Exclusion 6)	0.0963 µM	0.0231 µM	–
AGUCUGCUAGGAUAUACAUGAGGAUCACCCAUGUCUAUCAAAAGACUAUUAACCUGGUGUAGAAGGAGCUUGUA [Lasodiar] (puzzle: Exclusion 3)	–	–	apparent KD of MS2 coat protein [1]: 0.0107 µM
AGUGCGUAUGUGAGGAUAUGCUGGUCCUUGGAUCAGCAGAAGGCACAUGAGGAUCACCCAUGUGGUGUCGUACC [salish99_Bmod_Ex4_003] (puzzle: Brourd's mod of Exclusion 4)	–	–	apparent KD of MS2 coat protein [1]: 0.18 µM
AGUGCGUAUGUGAGGAUAUGCUGGUCCUUGGAUCGGCAGAAGGCACAUGAGGAUCACCCAUGUGGUGUCGUACU [salish99_Bmod_ex4_084] (puzzle: Brourd's mod of Exclusion 4)	–	–	apparent KD of MS2 coat protein [1]: 0.28 µM
AGUUAGAAAGGAUAUACAUGAGGAUCACCCAUGUAGGGCUGUUAGAGACCCGGUCUCUGUAGAAGGUUCGAACU [EX3 C.16] (Eterna round: R97, puzzle: Exclusion 3)	0.0308 µM	0.0289 µM	–
AGUUCACAUGAGGAUCACCCAUGUGAGGAUAUGGAUUCGCUGGCCGUAGCCAGUGGAUCCAGAAGGCGCAUGAU [JL-ex1-4.14] (Eterna round: R97, puzzle: Exclusion 1)	0.0369 µM	0.032 µM	–
AGUUGACGAGAAGGAUAUCCGAACCUUUAAAGAGGAGAAGGUCUAUCAACAUGAGGAUCACCCAUGUACAUCGCUCGGGUGUCC [Arenis] (Eterna round: R96, puzzle: Exclusion NG 1)	–	–	apparent KD of MS2 coat protein [2]: 0.0547 µM
AGUUGCGCAGGAUAUACAUGAGGAUCACCCAUGUGAGAGAAAUAAGUGAGGAAGAAAAGUAGAAGGGCGUGACA [Mat - Exclusion 3 - Mod of Salish D74] (puzzle: Exclusion 3)	–	–	apparent KD of MS2 coat protein [3]: 0.236 µM; apparent KD of MS2 coat protein [1]: 0.0406 µM; apparent KD of MS2 coat protein [4]: 0.0471 µM
AGUUGCGCAGGAUAUACAUGAGGAUCACCCAUGUGAGAGAAAUAAGUGAGGAAGAAAAGUAGAAGGGCGUGACG [Mat - Exclusion 3 - Mod of Salish D73] (puzzle: Exclusion 3)	–	–	apparent KD of MS2 coat protein [3]: 0.281 µM; apparent KD of MS2 coat protein [1]: 0.0538 µM; apparent KD of MS2 coat protein [4]: 0.0573 µM
AGUUGGCGAGGAUAUACAUGAGGAUCACCCAUGUAAAAAAAAAAAAAAAAAACUUCAUGUAGAAGGCGCUGACA [Starry Exclusion 3.4 (biggestlegoheroicafanever round 1 mod)] (Eterna round: R96, puzzle: Exclusion 3)	0.327 µM	0.373 µM	apparent KD of MS2 coat protein [2]: 0.2 µM
AGUUGGCGAGGAUAUACAUGAGGAUCACCCAUGUAAGAGAUACGAGUAAGGUAAAUAUGUAGAAGGCGCUGACA [JR_Ex3_Sub076] (Eterna round: R97, puzzle: Exclusion 3)	0.251 µM	0.0269 µM	–
AGUUGGCGAGGAUAUACAUGAGGAUCACCCAUGUGAAAUAUAAUAGUGAGGAAGAAAAGUAGAAGGCGCUGACA [Mat - Exclusion 3 - Mod of Salish D42] (puzzle: Exclusion 3)	–	–	apparent KD of MS2 coat protein [1]: 0.0427 µM
AGUUGGCGAGGAUAUACAUGAGGAUCACCCAUGUGAGAGGUACUAGUGAGGUCGAUUAGUAGAAGGCGCUGACA [Mat X3R4 m10] (Eterna round: R97, puzzle: Exclusion 3)	2.1 µM	0.0483 µM	–
AGUUGGGAAGGAUAUACAUGAGGAUCACCCAUGUGAAAUUAUAGUGAGGAAAUGAAAAGUAGAAGGUCCUGACA [Mod of Mat 4 - Jieux - Exclusion 3] (Eterna round: R97, puzzle: Exclusion 3)	0.147 µM	0.0358 µM	–
AGUUGUUGCGCAGGAUAUGAGGAUCACCCAUAGAAGGAUAUCGAAAGAGAAGGUCUGAGGAUUACCCAGAAGGGCGUGAUGACA [pwkr exNG2 2xF5 2xFMN.8] (Eterna round: R96, puzzle: Exclusion NG 2)	0.905 µM	0.184 µM	apparent KD of MS2 coat protein [2]: 0.13 µM
AUAAAACGUGUAGGAUAUGCGUGGCGAAGCUAUGCAGAAGGACAUGAGGAUCACCCAUGUUCUAGCGUCUGCGUACAGAUGCUA [JL eng1 1.35 mod 4] (Eterna round: R96, puzzle: Exclusion NG 1)	0.0182 µM	0.0148 µM	apparent KD of MS2 coat protein [2]: 0.0109 µM
AUAAAGUGAGGAUAUCCAAUAUAUGACAUGAGGAUCACCCAUGUUUCCACUCGUACCUCCGGAGAAGGCACAAUUU [Ex5 #63] (Eterna round: R97, puzzle: Exclusion 5)	0.0245 µM	0.0292 µM	–
AUAAAUCAUGUAGGAUAUGCAUAGCAAAGCUAUGCAGAAGGACAUGAGGAUCACCCAUGUCAUUCCGUCUGGAGACAGACGGGA [Mat - Exclusion NG 1 - Mod of JL - D57] (Eterna round: R96, puzzle: Exclusion NG 1)	0.129 µM	0.032 µM	apparent KD of MS2 coat protein [2]: 0.0264 µM

Sequence	apparent KD of MS2 coat protein (input ligand: FMN 200 uM)	apparent KD of MS2 coat protein (input ligand: none)	also measured
AUAAGCCCGGCAGGAUAUCACAGGUUGCCGGGUAUCAACAUGAGGAUCACCCAUGUACACCUGCUUGAGAAGGGCCCAAGGGCG [Inarza] (Eterna round: R96, puzzle: Exclusion NG 2)	0.163 µM	0.0803 µM	apparent KD of MS2 coat protein [2]: 0.0696 µM
AUAAGCUUUGAGAUCCUUAACAUGAGGAUCACCCAUGUUCGUCUUAUGAUGGUCUGAUCCCUGAGGAUCGGACCGUA [Mat - Sensor v3 - turn-off var 1 - JL Mod - D1] (puzzle: Sensor v3, turn-off variant 1)	–	–	apparent KD of MS2 coat protein [3]: 0.146 µM; apparent KD of MS2 coat protein [1]: 0.0284 µM; apparent KD of MS2 coat protein [4]: 0.186 µM
AUAAGUAUAUAGGAUAUCUAGCUGGAAACAGCUAGAGAAGGAUGUACAUGAGGAUCACCCAUGUAAAUCAAUAG [Ex6/8-A2] (Eterna round: R97, puzzle: Exclusion 6)	0.0179 µM	0.0196 µM	–
AUAAGUGAUAAGGAUAUCACUAGCCUCGGCUAGUGAGAAGGUAUCACAUGAGGAUCACCCAUGUGUUCCAAUAA [Ex6/7-A2] (Eterna round: R97, puzzle: Exclusion 6)	1.35 µM	0.169 µM	–
AUAAUAAUAUAGGAUAUCGAAUUAAUUAUUUAACGAGAAGGAUGAACAUGAGGAUCACCCAUGUGGUAUCAUGG [Mat - Exclusion 6 - JL Mod - D34] (puzzle: Exclusion 6)	–	–	apparent KD of MS2 coat protein [3]: 0.255 µM; apparent KD of MS2 coat protein [1]: 0.244 µM; apparent KD of MS2 coat protein [4]: 0.317 µM
AUAAUGUAAGGAUAUAUGAAUCACGGUGAUACACCGUGAAGAUAGAAGGUACAUGAGGAUCACCCAUGUAAGGC [Mod of Anonveat 12 - Jieux - Exclusion 4] (Eterna round: R97, puzzle: Exclusion 4)	0.0121 µM	0.021 µM	–
AUAAUGUAAGGAUAUCAGUCGUACAGCGAUAGCUGUACGACUGAGAAGGUACAUGAGGAUCACCCAUGUGAUCA [E4/8-A4] (Eterna round: R97, puzzle: Exclusion 4)	0.666 µM	3.68 µM	–
AUAAUGUCAGGAUAUCGAACUUACUACCUCGGUAGUAAGUUCGAGAAGGGACAUGAGGAUCACCCAUGUGAUCA [E4/1-A5] (Eterna round: R97, puzzle: Exclusion 4)	0.0685 µM	0.195 µM	–
AUAAUGUCAGGAUAUCGAGACUACUGCUUCGGCAGUAGUCUCGAGAAGGGACAUGAGGAUCACCCAUGUGAUCA [E4/1-A1] (Eterna round: R97, puzzle: Exclusion 4)	0.0418 µM	0.0408 µM	–
AUAAUGUGAGGAUAUCACGGCCCGGAGAAUCCGGUAAACGAUGAGAAGGCACAUGAGGAUCACCCAUGUUCCUG [EX4 A.4] (Eterna round: R97, puzzle: Exclusion 4)	0.0443 µM	0.0183 µM	–
AUAAUGUGAGGAUAUCGAGACUACUGCUGCGGCAGUAGUCUCGAGAAGGCACAUGAGGAUCACCCAUGUGAUCA [E4/2-A3] (Eterna round: R97, puzzle: Exclusion 4)	0.0897 µM	1.59 µM	–
AUAAUUAGAGGAUAUGGUACAUUGCACAUGAGGAUCACCCAUGUAAGGUGACCCAUGUCGCCAGAAGGCUGAUAUG [Eternabot (L2) Solution 46] (Eterna round: R97, puzzle: Exclusion 5)	3.46 µM	0.46 µM	–
AUACCACGAGGAUAUCGUCUAUAAUACAUGAGGAUCACCCAUGUUAUAUAUGUAAUGUUUCGAGAAGGCGUGUUUU [JR_E5_Sub082] (puzzle: Exclusion 5)	–	–	apparent KD of MS2 coat protein [1]: 0.0147 µM
AUACCACGAGGAUAUCGUCUAUUCCACAUGAGGAUCACCCAUGUUAUCCAUGUUUCGUUUCGAGAAGGCGUGUUUU [JR_E5_Sub075] (puzzle: Exclusion 5)	–	–	apparent KD of MS2 coat protein [1]: 0.0541 µM
AUACGCCAGGUAGGAUAUAGUACGUCGGCAACAUGAGGAUCACCCAUGUGGCCUCGUGUCUGGCACUAGAAGGGCCGAGGCCUU [Raatalave] (Eterna round: R96, puzzle: Exclusion NG 2)	0.0335 µM	0.0309 µM	apparent KD of MS2 coat protein [2]: 0.0262 µM
AUACUCGAAGGAUAUGUGUAAGAGUACAUGAGGAUCACCCAUGUCCUAAGCACUUGGACGGCAGAAGGUCGACUGU [Eternabot (L2) Solution 36] (Eterna round: R97, puzzle: Exclusion 5)	0.0577 µM	0.0251 µM	–
AUAGUAUAGCAAGGAUAUCGAUUUAGUUUGUUACGAGAAGGUGCUUUAGUUUAUACCUCUUGUUUACAUGAGGAUCACCCAUGU [JR_ExcNG1_Sub048] (Eterna round: R96, puzzle: Exclusion NG 1)	–	–	apparent KD of MS2 coat protein [2]: 0.0194 µM
